Laboratory results from patent US20220249563A1 (LEGEND BIOTECH IRELAND, published 2022).

B1: AS64116 (VHH)
VHH: QVKLVESGGGSVQAGGSLRLSCAASGYIYSCVGWFRQAPGKEREGVAGISTGGGGTVYADSVKGQFTISRDNAKNTVYLQMDSLKPEDTAMYYCAADRWNSFANCGAWGRYTYWGQGTQVTVSS
notes: camel sdAb; crude E. coli supernatant
B2: AS75751 (VHH)
VHH: QVRLVESGGGSVQAGGSLRLSCVASGYFYNTYYFMGWFRQAPGKEREGVAAIDTDGRTSYADSVKGRFTISKDNAKNTLYLQMNSLKPEDTAMYYCAAGFGYMNVIQALNGMRQNPDYWGQGTQVTVSS
notes: as for B1
B3: AS64346 (VHH)
VHH: QVHLVESGGGSVQAGGSLRLSCAASGYTYFMGWFRQAPQKEREWVATIGTGDIFNGAAYYVDSVKGRFAISQDNAKNTVYLQMNSLKPEDTAVYVCAAVQSKSSNYVLRDASTYNYWGQGTQVTVSS
notes: as for B1
B4: AS64276 (VHH)
VHH: QVHLMESGGGSVQAGGSLSLSCVVSGYTGSSRCMAWFRQAPGKEREAVAQIFTGRGTTGYADSVKGRFTISQDNAKNTVYLRMNSLRPEDTAIYYCAASLGPGRGACGYNYWGQGTQVTVSS
notes: as for B1
B5: AS64583 (VHH)
VHH: EVQLAESGGGLVQAGGSLRLSCTASGFTIAVYTMGWFRQAPGKEREGISCTSWAGGRTYTADSVKGRFTISRDNAKNTLYLQMNSLKPEDTAMYYCAAKAHPDCSGDWSPSGYEYWGQGTQVTVSS
notes: as for B1
B6: AS75383 (VHH)
VHH: EVQLAESGGGSVQAGGSLRLSCVASGYTFSSYCLGWFRQAPGKQRQGVATFNNRGVANYHDSVKGRFTASVDNAKNTLLLQMNSLEPDDTAMYYCAADRRYGRQWYQPCEWNTWGQGTQVTVSS
notes: as for B1
B7: AS63964 (VHH)
VHH: QVRLVESGGGSVQAGGSLRLSCSASGYTYSYNNMGWFRQAPGNEREGVAAISGGRFTAYADSVKGRFTISRDNAENTLYLQMNNLKPEDTGMYYCAAEVVDPTWGSRDQRRYKYWGQGTQVTVSS
notes: as for B1
B8: AS64475 (VHH)
VHH: QVQLQESGGGSVQAGGSLRLSCAASGYTWSRNWMGWFRQAPGKEREGFATITISGGSTWYADSVKGRFTISLDNAGNTVYLQMNSLKPEDTAMYYCAARDTARTYWGQGTQVTVSS
notes: as for B1
B9: AS64097 (VHH)
VHH: QVHLMESGGGSVQAGGSLRLSCEASGYTYSRNCMGWFRQAPGKEREGVAAINTGGGSTYYADSLEGRFTISQDNAKNTMYLQMNSLKPEDTAMYYCAAGPDLGGSWCRPVERAFTYWGQGTQVTVSS
notes: as for B1
B10: AS64562 (VHH)
VHH: EVQLVESGGGSVQAGGSLRLSCAASGYTARRDFMAWFRQVPGKEREGVAVIHTGGDTTYYADSVKGRFTISRDNAQNIMNLQMNSLKPEDTAMYYCAAGFRPRGGGYTGDVLAQAAAYNYWGQGTQVTVSS
notes: as for B1
B11: AS68320 (VHH)
VHH: QVHLVESGGDSVQAGGSLRLSCAASGYTYNTNYMGWFRQAPGKEREGVAAIYRHSGNTAYADSVKGRFTISQDYAKNTVYLQMNSLKPEDTAMYYCAAGRAGPWALMRPTEFGYWGQGTQVTVSS
notes: as for B1
B12: AS64420 (VHH)
VHH: EVQLVESGGGSVQAEGSLRLSCAASGDTSRSVWMGWARQVPGKEREVVATISTAGGSTWYTDSVKGRFTISQDNAKNTVYLQMNSLKPEDTAIYYCAARSRYATYWGQGTQVTVSS
notes: as for B1
B13: AS64605 (VHH)
VHH: QVKLVESGGGSVQAGGSLRLSCAVSRYPYSSICMGWFRQAPGKESEGVARIYTGTGSTWYTDSVKGRFTIARDNAQNTVYLQMNSLKPEDTAMYYCAARSNSYSYSSCDYGPLTRGGYNFWGQGTQVTVSS
notes: as for B1
B14: AS68270 (VHH)
VHH: QVQLAESGGGSVQAGGSLRLSCVASGYPSSTYYMLSMAWFRQAPGKEREGVAAITSGTGSTSYADSVKDRFTISKDYANNTLYLHINNLKPEDTAMYYCAAASGWIVPSRSLTANLYRYWGQGTQVTVSS
notes: as for B1
B15: AS64114 (VHH)
VHH: QVQLQESGGGSVQAGGSLTLSCEASGNTYSTNYMGWFRQAPGKEREEVAVIYTRGGHTYYVDSVRGRFTISQDNAKNTVYLQMNSLKPEDTAMYYCAAASRHRLRLNNPRDYDYWGQGTQVTVSS
notes: as for B1
B16: AS64594 (VHH)
VHH: QVHLVESGGGSVQAGGSLRLSCAASGYTYNSNYMGWFRQAPGKEREGVALIYTGGGSTYYADSVKGRFTISRDNAKNTVYLQMNSLKPEDTAMYYCSVRTQTRNYWGQGTQVTVSS
notes: as for B1
B17: AS64336 (VHH)
VHH: QVQLVESGGGSVQAGGSLRLSCTTSGRTYSSCSMGWYRQAPGKERELVSHIFSDGSRYYADSVKGRFTISQDNAKNTVYLQMNSLKPEDTAMYYCNRRTGWAPRCAVPGYWGQGTQVTVSS
notes: as for B1
B18: AS68121 (VHH)
VHH: EVQLAESGGGSVQAGGSLRLSCDASGYTYSRNCMGWFRQAPGKEREGVAAFYTDYIRFGRTYYADSVKGRFTIFQDNAKNTVYLQMNSLKPEDTAMYYCAADPGSRTDDSCGTSYNKGNFGYWGQGTQVTVSS
notes: as for B1
B19: AS75378 (VHH)
VHH: QVQLEESGGGSVQAGGSLRLSCVVSGNTRSTTYMGWFRQAPGKEREGVAIVYTGGRDTYYAASVKGRFTISQDNAKTTIYLQMNSLEPEDTAMYYCAARSYEYTYWGRGTQVTVSS
notes: as for B1
B20: AS68170 (VHH)
VHH: QVQLVESGGGSVQAGGSLRLSCTASGYTYRSNCMGWFRQAPGKEREGVATIYTGGGRNLYYADSVKGRFTISRDNAKNTLYLQMNSLKPEDSARYYCAAASDVAVGVNSCGGRTAGFDAWGQGTQVTVSS
notes: as for B1
B21: AS64123 (VHH)
VHH: QVQLAESGGGSVQAGGSLRLSCAASGYTYTSNWLGWFRQAPGKEREEVAIIYTGSGSTHYRSSVKGRFTISQDNAKNTVYLQMNSLKPEDTAMYYCAARFSEYNYWGQGTQVTVSS
notes: as for B1
B22: AS63999 (VHH)
VHH: EVQLVESGGGSVQAGGSLRLSCAASGYTYSSNWMGWFRQAPGKEREEVAIIYTGGISTHYRSSVKGRFTISQDNAKNTVYLQMNSLKPEDTAMYYCAARYTDYNYWGQGTQVTVSS
notes: as for B1
B23: AS76422 (VHH)
VHH: QVKLVESGGGSVQAGGSLRLSCAASGYTFAGNCLGWFRQAPGKGREGVVTYNNFGVANYADSVKGRFTVSQDNAKNTLLLQMNSLEPEDTAMYYCAADRRDGRRWSQPCEWNTWGQGTQVTVSS
notes: as for B1
B24: AS64072 (VHH)
VHH: QVQLVESGGGSVQAGGFLRLSCALSGYSYYINLMAWFRQAPGKEREAVAAHGPVSGTAYYTDSVKGRFTISRDPGKNTMYLQMFSLQPEDTALYYCAAETTMGWAHERGYRYWGQGTQVTVSS
notes: as for B1
B25: AS64513 (VHH)
VHH: EVQLVESGGGSVQAGGSLRLSCVASDYPYIDNCMGWFRQGPGKEREGVAAACTGGGSTYYADSVKGRFTISRDNAKNTVYLQMNSLKPEDTDVYYCATGYYSGSGPGYLLPWRYNYWGQGTQVTVSS
notes: as for B1
B26: AS64183 (VHH)
VHH: QVHLVESGGGSVQAGGSLRLSCAASGHTYSANCMAWFRRAPGKEREWVASVYTDDDSTMYTDSVKGRFTIFQDNAKNTVYLQMNSLKPEDTGMYICAADLSGGPAGCGYTHWGQGTQVTVSS
notes: as for B1
B27: AS63984 (VHH)
VHH: QVKLVESGGGSVQAGGSLRLSCAASGYTYSSNFMGWFRQAPGKEREGVATIVSGGGTTYYADSVRGRFTISQDNAKNTVYLQMNSLKPEDTAMYYCAAGGPVTNAPRWYPLRPPGYNYWGQGTQVTVSS
notes: as for B1
B28: AS64207 (VHH)
VHH: EVQLVESGGGSVQAGGSLRLSCAASGYTYSSNFMGWFRQAPGKEREGVATIVSGGGTTYYADSVRGRFTISQDNAKNTVYLQMNSLKPEDTAMYYCAAGGPPTNGAKWYPLRPPGYNYWGQGTQVTVSS
notes: as for B1
B29: AS68351 (VHH)
VHH: QVQLEESGGGLVQPGGSLRLSCAASGDTFRAYYMNWVRQAPGKGFEWVSGISASGGRTSYADSVKGRFTISRDNAKNTLYLQLNSLSTEDTGMYYCVKGAVRLSTSSVRDSSWGQGTQVTVSS
notes: as for B1

target: T1, extracellular domain of human DLL3 protein (aa27-466) having an N-terminal FLAG tag (AdipoGen, AG-40B-0151) (human, UniProt Q9NYJ7 27-466); assay: ELISA (protein), FACS (cells)
T1 construct: range 27-466; also called DLL3 ECD protein
T1 sequence (looked up): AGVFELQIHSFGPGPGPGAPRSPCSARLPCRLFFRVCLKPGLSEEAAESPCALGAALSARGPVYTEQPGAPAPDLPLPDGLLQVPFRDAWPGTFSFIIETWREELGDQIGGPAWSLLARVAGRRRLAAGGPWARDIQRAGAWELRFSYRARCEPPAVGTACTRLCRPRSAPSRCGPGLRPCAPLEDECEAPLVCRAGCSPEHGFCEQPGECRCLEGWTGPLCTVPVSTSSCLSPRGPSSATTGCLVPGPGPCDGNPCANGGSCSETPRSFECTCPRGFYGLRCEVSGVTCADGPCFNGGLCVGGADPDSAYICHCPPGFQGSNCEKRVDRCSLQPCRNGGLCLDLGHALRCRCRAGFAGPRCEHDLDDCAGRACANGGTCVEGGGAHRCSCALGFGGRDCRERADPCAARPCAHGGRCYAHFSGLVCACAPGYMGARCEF

Binding result, binds:
B1
B2
B3
B4
B5
B6
B7
B8
B9
B10
B11
B12
B13
B14
B15
B16
B17
B18
B19
B20
B21
B22
B23
B24
B25
B26
B27
B28
B29
